Experimental data reported in PMC9408559, “Genome-Wide Analysis of the RAV Gene Family in Wheat and Functional Identification of TaRAV1 in Salt Stress”.

Target: TaRAV1 (GST fusion) (Triticum aestivum, UniProt A0A3B6A018 1-392)
Experiment: EMSA; LightShift Chemiluminescent EMSA kit (Pierce), manufacturer's protocol; buffer, salt, pH and temperature not given
Conditions: protein: recombinant; tags: GST; label: biotin

TaRAV1 (GST fusion), sequence (A0A3B6A018 entry or part of it): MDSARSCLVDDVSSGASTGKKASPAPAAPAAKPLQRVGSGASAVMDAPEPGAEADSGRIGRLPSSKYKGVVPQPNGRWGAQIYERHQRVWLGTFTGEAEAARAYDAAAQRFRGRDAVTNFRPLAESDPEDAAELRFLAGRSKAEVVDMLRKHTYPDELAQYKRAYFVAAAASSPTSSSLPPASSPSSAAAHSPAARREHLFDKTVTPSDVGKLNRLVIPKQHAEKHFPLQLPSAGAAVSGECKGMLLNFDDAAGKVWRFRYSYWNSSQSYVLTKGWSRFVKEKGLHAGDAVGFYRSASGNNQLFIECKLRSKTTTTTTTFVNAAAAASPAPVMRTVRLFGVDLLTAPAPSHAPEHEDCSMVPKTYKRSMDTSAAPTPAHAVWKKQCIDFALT

B1: probe with CAACA and CACCTG elements (dsDNA)
DNA 1: CGGCAACAATAAACACCTGACTCGACGGCAACAATAAACACCTGAC
DNA 2: GTCAGGTGTTTATTGTTGCCGTCGAGTCAGGTGTTTATTGTTGCCG
B1: binds.

B2: probe with mutated CAACA and CACCTG elements (dsDNA)
DNA 1: CGGCATGTATAAACAATAGACTCGACGGCATGTATAAACAATAGAC
DNA 2: GTCTATTGTTTATACATGCCGTCGAGTCTATTGTTTATACATGCCG
B2: no binding.
